What was measured:
[1] = molecular target: biotinylated RSK1 725-735 peptide, unphosphorylated (human) (UniProt Q15418); test: holdup assay
[2] = molecular target: biotinylated RSK1 725-735 peptide, phosphorylated at Ser732 (position -3) (human) (UniProt Q15418); test: holdup assay
[3] = molecular target: biotinylated RSK1 725-735 peptide, unphosphorylated (human) (UniProt Q15418); test: SPR
[4] = molecular target: Scribble PDZ1 (Homo sapiens) (UniProt Q14160); test: holdup assay; details: cited from earlier work
[5] = molecular target: biotinylated RSK1 725-735 peptide, phosphorylated at Ser732 (position -3) (human) (UniProt Q15418); test: SPR
[6] = molecular target: MBP-fused PDZ domain 1 of PDZRN3 (human) (UniProt Q9UPQ7); test: fluorescence polarisation
[7] = molecular target: MBP-fused PDZ domain of ARHGEF12 (human) (UniProt Q9NZN5); test: fluorescence polarisation
[8] = molecular target: MBP-fused PDZ domain of GOPC (human) (UniProt Q9HD26); test: fluorescence polarisation
[9] = molecular target: MBP-fused PDZ domain of SYNJ2BP (human) (UniProt P57105); test: fluorescence polarisation
MBP-fused PDZ domain of SYNJ2BP (human), sequence (P57105 13-100): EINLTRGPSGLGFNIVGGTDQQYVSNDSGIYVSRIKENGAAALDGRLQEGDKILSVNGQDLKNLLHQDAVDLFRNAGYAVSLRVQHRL

HPV16 E6 PBM, sequence (P03126 whole entry, looked up): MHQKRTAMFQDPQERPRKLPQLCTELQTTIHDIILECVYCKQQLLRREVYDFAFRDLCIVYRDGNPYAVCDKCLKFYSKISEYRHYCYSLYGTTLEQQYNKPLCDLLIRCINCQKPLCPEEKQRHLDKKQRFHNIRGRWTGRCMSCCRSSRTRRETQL
Scribble PDZ1 (Homo sapiens), sequence (Q14160 725-818): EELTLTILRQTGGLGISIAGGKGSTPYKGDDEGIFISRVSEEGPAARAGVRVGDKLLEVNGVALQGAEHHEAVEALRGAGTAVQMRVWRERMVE
MBP-fused PDZ domain 1 of PDZRN3 (human), sequence (Q9UPQ7 249-339): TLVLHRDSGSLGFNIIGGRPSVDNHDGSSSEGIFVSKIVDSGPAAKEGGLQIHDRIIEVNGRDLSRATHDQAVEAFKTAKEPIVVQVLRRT
MBP-fused PDZ domain of ARHGEF12 (human), sequence (Q9NZN5 72-151): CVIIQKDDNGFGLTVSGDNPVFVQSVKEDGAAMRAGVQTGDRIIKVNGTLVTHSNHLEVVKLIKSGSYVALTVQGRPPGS

Substance: PDZ domain of PTPN3 (from UniProt P26045 510-582) (domain or fragment)
- Kd [1]: > 100 µM
- BI [2]: 0.21
- Kd [2]: 60.8 µM

Substance: PDZ domain 2 of NHERF2 (from UniProt Q15599 150-230) (domain or fragment)
- Kd [1]: 64.8 µM
- Kd [2]: > 100 µM

Substance: MBP-fused PDZ domain of ARHGEF12 (from UniProt Q9NZN5 72-151) (domain or fragment)
- BI [1]: 0.77
- Kd [1]: 4.2 µM
- Kd [2]: > 100 µM
- Kd [3]: 2.79 µM

Substance: PDZ domain 3 of LNX1 (from UniProt Q8TBB1 507-593) (domain or fragment)
- Kd [1]: > 100 µM
- BI [2]: 0.24
- Kd [2]: 50.8 µM

Substance: PDZ domain of LIMK2 (from UniProt P53671 152-239) (domain or fragment)
- Kd [1]: > 100 µM
- BI [2]: 0.22
- Kd [2]: 57.2 µM

Substance: MBP-fused PDZ domain 2 of GRID2IP (from UniProt A4D2P6 279-356) (domain or fragment)
- BI [1]: 0.67
- Kd [1]: 7.1 µM
- Kd [2]: > 100 µM
- Kd [3]: 3.96 µM

Substance: PDZ domain 2 of DLG4 (from UniProt P78352 160-246) (domain or fragment)
- BI [1]: 0.11
- Kd [1]: > 100 µM
- BI [2]: 0.25

Substance: MBP-fused PDZ domain 1 of NHERF3 (from UniProt Q5T2W1 9-90) (domain or fragment)
- BI [1]: 0.41
- Kd [1]: 22.1 µM
- Kd [2]: > 100 µM

Substance: MBP-fused PDZ domain 1 of PDZRN3 (from UniProt Q9UPQ7 249-339) (domain or fragment)
- BI [1]: 0.26
- Kd [1]: 45.4 µM
- BI [2]: 0.45
- Kd [2]: 18.6 µM

Substance: HPV16 E6 PBM (from UniProt P03126)
- Kd [4]: 7.5 µM

Substance: MBP-fused PDZ domain of SNTB1 (from UniProt Q13884 112-195) (domain or fragment)
- BI [1]: 0.22
- Kd [1]: 57.2 µM
- BI [2]: 0.45
- Kd [2]: 18.6 µM
- Kd [5]: 48 µM

Substance: MBP-fused PDZ domain of MAST2 (from UniProt Q6P0Q8 1104-1192) (domain or fragment)
- BI [1]: 0.74
- BI [2]: 0.23
- Kd [2]: 53.8 µM
- Kd [3]: 7.02 µM

Substance: MBP-fused PDZ domain 2 of MAGI2 (from UniProt Q86UL8 426-510) (domain or fragment)
- BI [1]: 0.42
- Kd [1]: 21.2 µM
- BI [2]: 0.23
- Kd [2]: 53.8 µM

Substance: MBP-fused PDZ domain of MAST1 (from UniProt Q9Y2H9 967-1055) (domain or fragment)
- BI [1]: 0.57
- Kd [1]: 11.1 µM
- Kd [2]: > 100 µM

Substance: MBP-fused PDZ domain of SNTA1 (from UniProt Q13424 87-170) (domain or fragment)
- BI [1]: 0.31
- Kd [1]: 35.1 µM
- BI [2]: 0.53
- Kd [2]: 13.2 µM

Substance: PDZ domain 1 of GRID2IP (from UniProt A4D2P6 3-84) (domain or fragment)
- Kd [1]: > 100 µM
- BI [2]: 0.24
- Kd [2]: 50.8 µM

Substance: PDZ domain of GORASP1 (domain or fragment)
- Kd [1]: > 100 µM

Substance: RSK1 683-735 peptide, unphosphorylated (from UniProt Q15418 683-735)
- Kd [6]: > 100 µM
- Kd [7]: 6.6 µM
- Kd [8]: 27 µM
- Kd [9]: > 100 µM

Substance: MBP-fused second PDZ domain of MAGI1 (from UniProt Q96QZ7 472-554) (domain or fragment)
- BI [1]: 0.43
- Kd [1]: 20.3 µM
- BI [2]: 0.15
- Kd [2]: 92.9 µM

Substance: PDZ domain of SHANK3 (from UniProt Q9BYB0 646-740) (domain or fragment)
- BI [1]: 0.27
- Kd [2]: > 100 µM

Substance: PDZ domain of LAP2 (from UniProt Q96RT1 1321-1410) (domain or fragment)
- Kd [1]: > 100 µM
- BI [2]: 0.28
- Kd [2]: 40.8 µM

Substance: PDZ domain 3 of DFNB31 (from UniProt Q9P202 816-899) (domain or fragment)
- BI [1]: 0.23
- Kd [1]: 53.8 µM
- Kd [2]: > 100 µM

Substance: PDZ domain of SHROOM2 (from UniProt Q13796 26-108) (domain or fragment)
- Kd [1]: > 100 µM
- BI [2]: 0.21
- Kd [2]: 60.8 µM

Substance: PDZ domain of PPP1R9A (from UniProt Q9ULJ8 504-592) (domain or fragment)
- Kd [1]: > 100 µM
- BI [2]: 0.33
- Kd [2]: 31.8 µM

Substance: MBP-fused PDZ domain of SYNJ2BP (from UniProt P57105 13-100) (domain or fragment)
- BI [1]: 0.26
- Kd [1]: 45.4 µM
- BI [2]: 0.54
- Kd [2]: 12.6 µM
- Kd [5]: 25 µM

Substance: MBP-fused PDZ domain 3 of PDZD7 (from UniProt Q9H5P4 862-934) (domain or fragment)
- BI [2]: 0.15
- Kd [2]: 92.9 µM
- Kd [3]: 6.2 µM

Substance: MBP-fused PDZ domain of SNTG2 (from UniProt Q9NY99 73-156) (domain or fragment)
- BI [1]: 0.41
- Kd [1]: 22.1 µM
- BI [2]: 0.52
- Kd [2]: 13.8 µM
- Kd [5]: 37 µM

Substance: PDZ domain of GRASP (from UniProt Q7Z6J2 101-190) (domain or fragment)
- BI [1]: 0.29
- Kd [1]: 38.8 µM
- Kd [2]: > 100 µM

Substance: MBP-fused PDZ domain of HTRA1 (from UniProt Q92743 365-467) (domain or fragment)
- BI [1]: 0.44
- Kd [1]: 19.4 µM
- BI [2]: 0.36
- Kd [2]: 27.7 µM

Substance: PDZ domain of ARHGEF11 (from UniProt O15085 47-126) (domain or fragment)
- BI [1]: 0.28
- Kd [1]: 40.8 µM
- Kd [2]: > 100 µM

Source: publication PMC6424611
